Results reported in patent publication US20260242478A1 (published 2026).

B1: Phage-1062 (peptide)
peptide: YCAGHSAEYMSKCL
notes: Clonal phage supernatant; not shown: fused to the pIII filament protein of the bacteriophage
B2: Phage-1063 (peptide)
peptide: YCDGHLMEYKAKCL
notes: as for B1
B3: Phage-1064 (peptide)
peptide: YCEGHSAEYIAKCL
notes: as for B1
B4: Phage-1065 (peptide)
peptide: YCDGHSPEHMGKCL
notes: as for B1
B5: Phage-1066 (peptide)
peptide: YCDGHDARYMEKCL
notes: as for B1
B6: Phage-1067 (peptide)
peptide: YCDGHSPEYMQKCL
notes: as for B1
B7: Phage-1068 (peptide)
peptide: YCNGHLPEYMSKCI
notes: as for B1
B8: Phage-1069 (peptide)
peptide: YCSGHLPEYMDKCL
notes: as for B1
B9: Phage-1070 (peptide)
peptide: YCDGHSLEYMLKCL
notes: as for B1
B10: Phage-1071 (peptide)
peptide: YCEGHHPWYVQKCL
notes: as for B1
B11: Phage-1072 (peptide)
peptide: YCDGHNWEYMEKCL
notes: as for B1
B12: Phage-1073 (peptide)
peptide: YCDGHAEQYMSKCL
notes: as for B1
B13: Phage-1074 (peptide)
peptide: YCDGLFQLYMMKCL
notes: as for B1

The binders below were run against T1, Anti-CD28 Fab (SEQ ID NOs: 696, 697) (assay: phage ELISA, clonal phage on biotinylated anti-CD28 Fab captured on neutravidin plates;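 further: crude clonal phage supernatants added to wells pretreated with CD28 antigen or with blocking buffer only, bound phage detected by HRP-linked anti-M13 antibody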).
T1 construct: In the phage ELISA the Fab was biotinylated and captured on neutravidin coated plates
T1 sequence (VH, as listed by the source, chain 1 of 2): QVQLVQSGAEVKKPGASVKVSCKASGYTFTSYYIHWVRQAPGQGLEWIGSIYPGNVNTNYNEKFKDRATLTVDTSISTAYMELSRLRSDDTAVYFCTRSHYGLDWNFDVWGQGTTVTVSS
T1 sequence (VL, as listed by the source, chain 2 of 2): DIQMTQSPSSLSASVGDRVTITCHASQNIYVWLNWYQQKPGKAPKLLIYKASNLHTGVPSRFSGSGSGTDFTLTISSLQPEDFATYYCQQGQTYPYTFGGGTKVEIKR
Procedure: (§1) After panning, phage infected bacteria were plated out and colonies picked into 96 well blocks. Clonal phage was then amplified and separated from bacterial cells via centrifugation.
(§2) Clonal phage were harvested as crude supematants and screened via standard ELISAs. […] Prior to the addition of clonal phage, wells were incubated with blocking buffer and CD28 antigen or blocking buffer alone. Without washing or aspirating, clonal phage supematants were then added to the wells and incubated for a short time. Wells were then washed followed by detection of bound phage using a horse radish conjugated anti-M13 antibody. Clonal phage of interest were then sent for sequence analysis.

Row | Binder | Anti-CD28 Fab signal (phage binding ELISA)
1 | YCQGHSPNYITKCF [Phage-1058] | 1.41
2 | YCDGHAPEYLGKCL [Phage-1059] | 1.41
3 | YCAGHAEEYLEKCL [Phage-1060] | 1.41
4 | YCDGHSHEYMQKCL [Phage-1061] | 1.41

Each binder was assayed against T2, Anti-CD28 Fab (SEQ ID NOs: 696, 697) in the same assay as above.
T2 construct: Biotinylated and captured on neutravidin coated plates in the phage ELISA
T2 sequence (VH, as listed by the source, chain 1 of 2): as the sequence (VH, as listed by the source, chain 1 of 2) above
T2 sequence (VL, as listed by the source, chain 2 of 2): as the sequence (VL, as listed by the source, chain 2 of 2) above
Procedure: as §1, §2

Row | Binder | Anti-CD28 Fab signal (phage binding ELISA)
5 | YCDGHSSVYMLKCL [Phage-1130] | 1.26
6 | YCEGHHRIYMQKCL [Phage-1131] | 1.26
7 | YCEGHSEEYMAKCL [Phage-1132] | 1.26
8 | YCEGHMSIYMQKCL [Phage-1133] | 1.25
9 | YCEGHLQEHMAKCL [Phage-1134] | 1.25
10 | YCAGLFEEYMSKCL [Phage-1135] | 1.25

These binders were tested against T1, Anti-CD28 Fab (SEQ ID NOs: 696, 697) (assay: phage ELISA on captured anti-CD28 Fab, wells pre-incubated with CD28 antigen as competitor;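 further: crude clonal phage supernatants added without washing, bound phage read out by HRP-coupled anti-M13 antibody, reference wells given blocking buffer only instead of CD28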).

Row | Binder | Anti-CD28 Fab signal in the presence of CD28 (phage binding ELISA)
11 | YCQGHSPNYITKCF [Phage-1058] | 0.06
12 | YCDGHAPEYLGKCL [Phage-1059] | 0.06
13 | YCAGHAEEYLEKCL [Phage-1060] | 0.15
14 | YCDGHSHEYMQKCL [Phage-1061] | 0.06

These binders were tested against T2, Anti-CD28 Fab (SEQ ID NOs: 696, 697) in the same assay as above.

Row | Binder | Anti-CD28 Fab signal in the presence of CD28 (phage binding ELISA)
15 | YCDGHSSVYMLKCL [Phage-1130] | 0.06
16 | YCEGHHRIYMQKCL [Phage-1131] | 0.07
17 | YCEGHSEEYMAKCL [Phage-1132] | 0.07
18 | YCEGHMSIYMQKCL [Phage-1133] | 0.07
19 | YCEGHLQEHMAKCL [Phage-1134] | 0.05
20 | YCAGLFEEYMSKCL [Phage-1135] | 0.06

Each binder was assayed against Anti-CD28 Fab (SEQ ID NOs: 696, 697) (assay: phage ELISA; Fab-coated wells pre-incubated with CD28 antigen as competitor, anti-M13 HRP detection;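 further: crude clonal phage supernatants screened by ELISA, comparing wells pre-treated with CD28 antigen in blocker against wells given blocker only, bound phage read via HRP-linked anti-M13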).
Target sequence in this assay (VH, as listed by the source, chain 1 of 2): as the sequence (VH, as listed by the source, chain 1 of 2) above
Target sequence in this assay (VL, as listed by the source, chain 2 of 2): as the sequence (VL, as listed by the source, chain 2 of 2) above
Procedure: as §1, §2

Row | Binder | Anti-CD28 Fab signal in the presence of CD28 (phage binding ELISA)
21 | YCDGHMVQYMAKCL (Tested as clonal phage supernatant) [Phage-1089] | 0.07
22 | YCDGHSEEFMWKCL (Tested as clonal phage supernatant) [Phage-1090] | 0.06
23 | YCEGHMEKYMEKCL (Tested as clonal phage supernatant) [Phage-1091] | 0.11
24 | YCDGHLPRYMAKCL (Tested as clonal phage supernatant) [Phage-1092] | 0.1
25 | YCDGHLPEYMQKCL (Tested as clonal phage supernatant) [Phage-1093] | 0.08
26 | YCDGHLLQYMHKCL (Tested as clonal phage supernatant) [Phage-1094] | 0.07
27 | YCDGHAPLYIQKCL (Tested as clonal phage supernatant) [Phage-1095] | 0.06
28 | YCDGHSKEYMAKCL (Tested as clonal phage supernatant) [Phage-1096] | 0.06
29 | YCEGHSPEYMHKCL (Tested as clonal phage supernatant) [Phage-1097] | 0.09
30 | YCDGHSEAYIEKCL (Tested as clonal phage supernatant) [Phage-1098] | 0.06
31 | YCAGHVDQYLWKCL (Tested as clonal phage supernatant) [Phage-1099] | 0.06
32 | YCAGHASEYMAKCL (Tested as clonal phage supernatant) [Phage-1100] | 0.08
33 | YCDGHAPQYMRKCL (Tested as clonal phage supernatant) [Phage-1101] | 0.08

The binders below were run against T3, Anti-CD28 Fab (SEQ ID NOs: 696, 697) (assay: phage ELISA; captured anti-CD28 Fab pre-incubated with CD28 antigen as competitor, anti-M13 HRP detection;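 further: crude clonal phage supernatants screened by ELISA, with wells pre-incubated with CD28 antigen in blocking buffer, compared against wells given blocking buffer alone as control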).
T3 construct: In the phage ELISA the Fab was biotinylated and captured on neutravidin coated plates
T3 sequence (VH, as listed by the source, chain 1 of 2): as the sequence (VH, as listed by the source, chain 1 of 2) above
T3 sequence (VL, as listed by the source, chain 2 of 2): as the sequence (VL, as listed by the source, chain 2 of 2) above
Procedure: as §1, §2

Row | Binder | Anti-CD28 Fab signal in the presence of CD28 (phage binding ELISA)
34 | B1 | 0.07
35 | B2 | 0.06
36 | B3 | 0.09
37 | B4 | 0.09
38 | B5 | 0.06
39 | B6 | 0.53
40 | B7 | 0.07
41 | B8 | 0.07
42 | B9 | 0.07
43 | B10 | 0.07
44 | B11 | 0.05
45 | B12 | 0.07
46 | B13 | 0.07

Each binder was assayed against T3, Anti-CD28 Fab (SEQ ID NOs: 696, 697) (assay: phage ELISA; biotinylated anti-CD28 Fab on neutravidin plate, clonal phage supernatant, anti-M13 HRP detection;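 further: crude supernatants of single phage clones picked after panning were screened for binding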).

Row | Binder | Anti-CD28 Fab signal (phage binding ELISA)
47 | B1 | 1.41
48 | B2 | 1.41
49 | B3 | 1.41
50 | B4 | 1.4
51 | B5 | 1.4
52 | B6 | 1.4
53 | B7 | 1.4
54 | B8 | 1.39
55 | B9 | 1.39
56 | B10 | 1.39
57 | B11 | 1.38
58 | B12 | 1.38
59 | B13 | 1.38

The binders below were run against Anti-CD28 Fab (SEQ ID NOs: 696, 697) in the same assay as above.
Target sequence in this assay (VH, as listed by the source, chain 1 of 2): as the sequence (VH, as listed by the source, chain 1 of 2) above
Target sequence in this assay (VL, as listed by the source, chain 2 of 2): as the sequence (VL, as listed by the source, chain 2 of 2) above

Row | Binder | Anti-CD28 Fab signal (phage binding ELISA)
60 | YCDGHMVQYMAKCL (Tested as clonal phage supernatant) [Phage-1089] | 1.36
61 | YCDGHSEEFMWKCL (Tested as clonal phage supernatant) [Phage-1090] | 1.35
62 | YCEGHMEKYMEKCL (Tested as clonal phage supernatant) [Phage-1091] | 1.35
63 | YCDGHLPRYMAKCL (Tested as clonal phage supernatant) [Phage-1092] | 1.35
64 | YCDGHLPEYMQKCL (Tested as clonal phage supernatant) [Phage-1093] | 1.35
65 | YCDGHLLQYMHKCL (Tested as clonal phage supernatant) [Phage-1094] | 1.35
66 | YCDGHAPLYIQKCL (Tested as clonal phage supernatant) [Phage-1095] | 1.34
67 | YCDGHSKEYMAKCL (Tested as clonal phage supernatant) [Phage-1096] | 1.34
68 | YCEGHSPEYMHKCL (Tested as clonal phage supernatant) [Phage-1097] | 1.34
69 | YCDGHSEAYIEKCL (Tested as clonal phage supernatant) [Phage-1098] | 1.34
70 | YCAGHVDQYLWKCL (Tested as clonal phage supernatant) [Phage-1099] | 1.34
71 | YCAGHASEYMAKCL (Tested as clonal phage supernatant) [Phage-1100] | 1.33
72 | YCDGHAPQYMRKCL (Tested as clonal phage supernatant) [Phage-1101] | 1.33
